This series is described as follows: label from the status in PepcDB records.

For “RDSLFICAVATTETSRIPGITGAGASPELTEYTPAADVELIVHDAPRCLPEIPQTIVEGEAAPTPAVITKAALELAEVPFMVADAGASVKPDVPYININSEPGGDIRTGRAVTEPQRIYERGLMVGRTLSSLTEHLVVGESTPAGTTTALGVLTALGYDADFRVSASMPHNPHDLKREVVMAGLSNAGIEKGDCSREPFRAVEAVGDPMIPAVAGICMGSTVPVTLAGGTQMTAVCALMRAIDPDFDFSDTAIATTIFVAEDSTSDINRIAEQIGDIDIYVVDPDFGSASHRGLHEYLNGSVKEGVGAGGAMLLALLH”, the protein production result is “failed”. Turning to “RDTSVVVEHTSANPTGPVHVGRARNPIIGDAVARVLDYAGYDVDRHYYVNDAGRQIAVFTWAYETFDEDDLPEPERESPEYEMVRYYRKGNTILEDGDPDEVEAAEAEVQSILQGLEDGDEETYERVAEVVDTVLGGMQNTLGRLPAEFDEFVKETKFMRNGDTDDLVDRLKGLDCAVYEEDAWQLDLPDFEKNLVFLRSDGTSLYTTRDLAHHEWKFDTYDRAVTVLGEDHKLQADQLAAALELLDNDTDQLRQVFYSWVNLPEGGMSTREGTGIDLDDLLDEAIDRAREEVESRLDDRTRGDLDEDDIDRIARQVGIGAVRYDIVSKQPTKGITFEWDRALDFEAQSAPYVQYV”, the protein production result was “failed”. Regarding “REMGCAVTVADSNSAQLDKLAQQTGCQTISPADVVSDGFQDYTVVVTSPGWRPDSPLLVAAQSAGLEVIGDVELVYRLDRAEVFGPKRTWMVVTGTNGKTTTTAMLAEIMQHSGARAAAVGNIGVSVADAVRTQPRIDVLVAELSSFQL”, the protein production entry is reported as “failed”. Next, “RESVEKQKKLEAILVSMDSGVIAVDRKHKIIMINPYAEKIFGIDKNIIGQSLMDCIRNYEFEDIFNKRAEGYAEIKTSWPKERNLRIKTADIINGYECIGTVAVVQDIT”: “failed”; “RFGLPVNGALDQYSARAANILAGNLDNHPLLEITALDFRMKANSDVLIAVTGAPLTLTVGGRPCSQWEPVSVRAGESVSIRGIHRGLRAYLAIHGSIEAGTLLGSAAPDTVVGFGLQLQEGTTLLSRRSVSPVRQPYFDLPLFRLGLERPSMGSDLSVDVTDGPDVAEFGESGELLFTSEYVVSGRSNHIGLRLGGELPERTSSDEVLSRGVPVGAVEVPSREELLVLHRGRGVTAGYPVLAVVTSTGLDVLAQARPGDKVRFRKTTVAEATAAHRRSRAQ”: “failed”; “RFKQNADHIVLTHVFNGGSAESAALCPQDKIIALDGYACTDFAAQWARYHVRAKINIHFFRAGILRQTVLTVQATAADTAI”: “failed”.

Take “RGRGGTGGARRLSCGARRRAARGTSPGRRLSTAWSQPQPPPEEYAGADDVSQSPVAEEPSWVPSPRPPVPHESPEPPSGRSLVQRDIQAFLNQCGASPGEARHWLTQFQTCHHSADKPFAVIEVDEEVLKCQQGVSSLAFALAFLQRMDMKPLVVLGLPAPTAPSGCLSFWEAKAQLAKSCKVLVDALRHNAAAAVPFFGGGSVLRAAEPAPHASYGGIVSVETDLLQWCLESGSIPILCPIGETAARRSVLLDSLEVTASLAKALRPTKIIFLNNTGGLRDSSHKVLSNVNLPADLDLVCNAEWVSTKERQQMRLIVDVLSRLPHHSSAVITAASTLLTELFSNKGSGTLFKNAERMLRVRSLDKLDQGRLVDLVNASFGKKLRDDYLASLRPRLHSIYVSEGYNAAAILTMEPVLGGTPYLDKFVVSSSRQGQGSGQMLWECLRRDLQTLFWRSRVTNPINPWYFKHSDGSFSNKQWIFFWFGLADIRDSYELVNHAKGLPDSFHKPASDPGS”: the protein production result was “failed”. As to “RGSRFTWRKECLAVMESYFNENQYPDEAKREEIANACNAVIQKPGKKLSDLERVTSLKVYNWFANRRKEIKRRANIAAILES”, the protein production entry was “not failed”. For the sequence “RKEMTAACTPRRRIINLTSVLSLQEEINEQGHEVLREMLHNHSFVGCVNPQWALAQHQTKLYLLNTTKLSEELFYQILIYDFANFGVLRLSEPAPLFDLAMLALDSPESGWTEEDGPKEGLAEYIVEFLKKKAEMLADYFSLEIDEEGNLIGLPLLIDNYVPPLEGLPIFILRLATEVNWDEEKECFESLSKECAMFYSIRKQYISEESTLSGQQSEVPGSIPNSWKWTVEHIVYKALRSHILPPKHFTEDGNILQLANLPDLYKVFERC”, the protein production result is given as “failed”. As for “RKKPVSQSLEFPTRYSPYRPYRCVHQGCFAAFTIQQNLILHYQAVHKSDLPAFSAEVEEE”, the entry is “not failed”. As for “RNPLFTCVISSIETTLSIPISGVHRDVIKYTPSADVELVFYGKSLTLKTPPIDATGSPTPATITRACVELKNIKNLHIDAGAFVKPKIPFIEIDEKPTGRIEEGKAMNNSKELYMKGYLLGKNLDAELLIVGESVPGGTTTALGVLLGLGYDAEGKVSSGSINNPHELKIKVVREGLKKAGINEKSSVFDVLNAVGDKMMPVVAGLAISFAERNKPVILAGGTQMSAVLAVIKEINKKVLDKNLIAIGTTEFVLNDKKGDLKGIVEQIGNVPVLASKFYFEKAKIEGLKNYCKGSVKEGVGAGGIAVYSIVNDL”, the entry is “failed”; as for “RNVWVVAELDEQGVSEASLQMLTPARRIADKLGESVVGVIAGPPGSSQLAVEMVERGADEVIVVEHERLSEYYPDVVGSVIVELSLKYKPSVILFAATARGREMAPYVANTLKTGITADCTDFDVDPKTRDVLLIRPPFSAIMLAYIRTPFRRPQIGTARPNVFPLPERQPGRQGRIVREEVEPPEPMARLVNRVRIPRSEVP”, “failed”. On to “RPAIRKRLLKPKVLDSSPRALVGHRAEVLEDVGATSGQVRLDGSIWSARSMDPTHTFAEGEIVSVIDIQGTTAIVWKEA”, for which the protein production entry is “not failed”. As for “RPHVVKVYSEDGACRSVEVAAGATARHVCEMLVQRAHALSDETWGLVECHPHLALERGLEDHESVVEVQAAWPVGGDSRFVFRKNFA”, the entry is “not failed”; as for “RPQTTDNWQNTEIEGIDIMLAVDVSTSMLAEDLKPNRLEAAKQVASEFINGRPNDNIGLTIFAGESFTQCPLTVDHGVLLNLFNSIKGDIAQRGLIEDGTAIGMGIANAVTRLKDSKAKSKVIILLTDGSNNRGDISPLTAAEIAKQFGIRIYTIGVGTNGTAPYPMQTYAGTQYVNVPVEIDEKTLTEIAGTTNGNYFRATSNSKLKEVYQEIDKLEKTKL”, “failed”; as for “RQLSRHTYAVRALTDIDDFNAQFNTDFDDEEVDTIGGLIMQTFGYLPKRGEEIILKNLQFKVTSADSRRLIQLRVTVPDEHLAEMNNVDEKSE”, “failed”. Next, “RQVQKELGDVLVRLHNPVVLTPTTVQVTWTVDRQPQFIQGYRVMYRQTSGLQATSSWQNLDAKVPTERSAVLVNLKKGVTYEIKVRPYFNEFQGMDSESKTVRTTEE”: “not failed”; “RRHYIDAFGTGPGFAAVASFYPGCFRIKPPGGRDYDLVGPDIAQPLLLLMGDADTETPAAECVDKLTPLKAAGAPVEWHVYPSTTHCWDCQQLDGRSKTDVRGNHVAYRYQPDVVADSERRLFAFLER”: “failed”; “RSAEALFEKAVTPSDVGKLNRLVIPKHHAEKHFPLPSSNVSVKGVLLNFEDVNGKVWRFRYSYWNSSQSYVLTKGWSRFVKEKNLRAGDVVSFSRSNGQDQQLYIGWKSRSGSDLDA”: “not failed”. Consider “RSLQLDKLVNEMTQHYENSVPEDLTVHVGDIVAAPLPTNGSWYRARVLGTLENGNLDLYFVDFGDNGDCPLKDLRALRSDFLSLPFQAIECSLARIA”, for which the protein production result is “not failed”.

Turning to “RSMEDVRLHRKEKGDAYSFNWSLKIEADFQLPFDPTHTSMEGLNLNLDQEPQVLAANLRKAFSGIVAGNVKAEGIREIECKGPFSIHGDPVLMKKLDKLLQDFVEQHRMKLPGGSDYEPCYRIAHP”, the protein production result is recorded as “failed”.

As to “RTRALYDLGRELASALTASQIIETAVGRLEPLFRAKVMLFIPNSEDRLRAATETGNDADAGVAQWVFDNQQPAGLGTNTLPSNAALYVPLKAPMRVRGVIALLPEDAVHPFLPEQQRLLETCAAQIALALERVHYVEVAQDAIV”, the protein production entry was “failed”. Next, “RTVAQNASETTVSYDTDTAVLSEADVLRIALSENATVKVADMDVRKQEYARRAARADLFPKVDLNGVYSHTLKKQVLYIDMPGFSSSEGIEMGRTHNTQGGVNVSMPLVSAQLWKSIAMTGEQLDLALEKARSSRIDLVAEVKKAYLSVLLAEDSYGVFKRSYDNALANYKNISDKFDRGLVAEYDKIRANVQVRNIEPNLLQAQNSVALALWQLKVLMSMEVETPIRLSGSLSDYKEQVYTGYFAADTLISNNSSLRQLDIQRRLAVSADKLNKYSFLPTLNLGGQYTYSLNSNDIKFWGEGQR”: “not failed”. As to “RVKESITRTSRAPSVATVGSICDLNLKIPEINSSDMSAHVTSPSGRVTEAEIVPMGKNSHCVRFVPQEMGVHTVSVKYRGQHVTGSPFQFTVGPLGEGG”, the protein production entry is “not failed”. For “RYPTNNFGNCTGCSATFSVLKKRRSCSNCGNSFCSRCCSFKVPKSSMGATAPEAQRETVFVCASCNQTLSK”, the protein production entry is reported as “not failed”. For “SAAVGAEARGAWCVPCLVSLDTLQELCRKEKLTCKSIGITKRNLNNYEVEYLCDYKVVKDMEYYLVKWKGWPDSTNTWEPLQNLKCPLLLQQFSNDKHNYLSQVITSEEAERRGQFYDNKGITYLFDLDYESDEFTVDAARYGNVSHFVNHSCDPNLQVFNVFIDNLDTRLPRIALFSTRTINAGEELTFDYQMKGSGDISSDSIDHSPAKKRVRTVCKCGAVTCRGYLN”, the protein production entry is given as “failed”. “SADEAPSSADEAPSSAVEQIVAPVDFSDLTEVALRHVAQIAPLYDVPVTLVHVVEDPTMPSVYEVNASAVRARAAEQRAEEALQSLGAPIEETGVSVSYLVHRGQTTSTVVEATGHRDTLTVMGTKGLSGLRRVMLGSVTEAVIRASDGPVLAVPASAQEASPANE”: the protein production result was “failed”.

Regarding “SADSEADKPLRKISAAFKKLAIIVNSPNPEVPVTQFSHACSLVSPLFGCLGIAFKFAEMDYVAKVDDLVRASSSISTLVVMMDKDIEADCVRKAGSHTRNLLRVKRGLDMVKVLFEQIIASEGDNSLKDPATKSYAQVFAPHHGWAIRKAVSLGMYALPTRAHLLNMLKEDEAAAKIHMQSYVNSSAPLITYLDNLFLSKQLGIDW”, the protein production result is “failed”. As for “SAEASSANLGSGCEEKRHEGSSSESVPPGTTISRVKLLDTMVDTFLQKLVAAGSYQRFTDCYKCFYQLQPAMTQRIYDKFIAQLQTSIREEISDIKEEGNLEAVLNALDKIVEEGKVRKEPAWCEAQRCRVQQRCSLCVQAGGQRGSEETQALPVSMAGSPSPLPGSPGAQEGGV”, the entry is “failed”. Next, “SAKDPLAEAGLHFDELNKLRVLEPDVSQKTTELKEECEEFVDKIGQFQKIVGGLIELVDELAKEAETEKMKAIGARNLLKSVEKQREAQHQQLQALIAEKKMQLERYRIEYEALQKVEAEQSEFIDQFILQK”: “failed”; “SAMAQKEEGHEAAAAEAKKETDLAHVDQVETFVGKEKYYVVKGTDKKGTALYVWVPADKKAKILSKEAKEGISEDKAAKIIKDEGLVSKQKEVHLAREGNVLLWEVTYLDKEGQYSLSYVDFTTGKILKNITP”: “not failed”; “SATERADSADFRTIIRNKIPLMDVRAPVEFGKGAFDLSINYPLMNNDERADVGICYKQNGQEAAIKLGNALVSGQSKARRLTQWQTFARENPQGYLYCFRGGLRSQTVQRWLKESGINYPLITGGYKALRQFLLNELEQLALH”: “failed”.

The record behind these values is a protein production outcome set (Wang et al. 2014).
